This assay has as its target GST-fused GAS41 YEATS domain (residues 1-148) (human, UniProt O95619 1-148). Nature of the assay: fluorescence polarisation.

Chain of GST-fused GAS41 YEATS domain (residues 1-148) (O95619 1-148): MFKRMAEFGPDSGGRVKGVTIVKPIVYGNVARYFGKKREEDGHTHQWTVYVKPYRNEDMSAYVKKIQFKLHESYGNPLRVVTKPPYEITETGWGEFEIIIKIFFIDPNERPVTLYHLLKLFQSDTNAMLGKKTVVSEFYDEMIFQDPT

GGKAPRKQLATKAARKSAP (N-terminal acetyl; acetyl-lysine at K18 and K27; C-terminal amide) [H3K18acK27ac peptide] returned an IC50 of 50 µM.

These data come from publication PMC8923076 (Cell chemical biology, 2021).
